Experimental findings from US20260217833A1 (APTEVO RESEARCH AND DEVELOPMENT, published 2026) are described below.

B1: CD4001184 (Fc fusion)
scFv: DIQMTQSPSSVSASVGDRVTITCRSSQSLLFSVNQKNYLAWYQQKPGKAPKLLIYWASTRESGVPDRFSGSGSGTDFTLTISSLQPEDFATYYCQHYYSYPWTFGQGTKVEIKGGGGSGGGGSGGGGSGGGGSQVQLVQSGAEVKKPGSSVKVSCKASGYTFSTSWIEWIRQAPGQGLEWIGSILPGSGSTNYNEKFKGKATFTADTSTSTAYMELSSLRSEDTAVYYCARGDDGSYVRWYFDHWGQGTLVTVSS
notes: humanized 1D5 variant; not shown: wild-type human IgG1 Fc and the Fc-to-scFv linker
B2: CD4001201 (Fc fusion)
scFv: DIQMTQSPSSVSASVGDRVTITCRSSQSLLFSVNQKNYLAWYQQKPGKAPKLLIYWASTRESGVPDRFSGSGSGTDFTLTISSLQPEDFATYYCQHYYSYPWTFGQGTKVEIKGGGGSGGGGSGGGGSGGGGSQVQLVQSGAEVKKPGSSVKVSCKASGYTFSTSWIEWIRQAPGQGLEWIGSILPGSGSTNYAEKFKGKATFTADESTSTAYMELSSLRSEDTAVYYCARGDDGSYVRWYFDHWGQGTLVTVSS
notes: humanized 1D5 variant; not shown: wildtype human IgG1 Fc and its linker to the scFv
B3: CD4001187 (Fc fusion)
scFv: DIQMTQSPSSVSASVGDRVTITCRSSQSLLFSVNQKNYLAWYQQKPGKAPKLLIYWASTRESGVPDRFSGSGSGTDFTLTISSLQPEDFATYYCQHYYSYPWTFGQGTKVEIKGGGGSGGGGSGGGGSGGGGSQVQLVQSGAEVKKPGSSVKVSCKASGYTFSTSWIEWIRQAPGQGLEWIGSILPGSGSTNYAEKFKGKATFTADTSTSTAYMELSSLRSEDTAVYYCARGDDGSYVRWYFDHWGQGTLVTVSS
notes: humanized 1D5 variant; not shown: wild-type human IgG1 Fc and the Fc-scFv linker
B4: CD4001204 (Fc fusion)
scFv: DIQMTQSPSSVSASVGDRVTITCRSSQSLLFSVNQKNYLAWYQQKPGKAPKLLIYWASTRESGVPDRFSGSGSGTDFTLTISSLQPEDFATYYCQHYYSYPWTFGQGTKVEIKGGGGSGGGGSGGGGSGGGGSQVQLVQSGAEVKKPGSSVKVSCKASGYTFSTSWISWVRQAPGQGLEWMGGILPGSGSTNYNQKFQGRVTITADTSTSTAYMELSSLRSEDTAVYYCARGDDGSYVRWYFDHWGQGTLVTVSS
notes: as for B2
B5: CD4001197 (Fc fusion)
scFv: DIQMTQSPSSVSASVGDRVTITCRSSQSLLFSVNQKNYLAWYQQKPGKAPKLLIYWASTRESGVPDRFSGSGSGTDFTLTISSLQPEDFATYYCQHYYSYPWTFGQGTKVEIKGGGGSGGGGSGGGGSGGGGSQVQLVQSGAEVKKPGSSVKVSCKASGYTFSTSWISWVRQAPGQGLEWIGGILPGSGSTNYNEKFKGKATFTADESTSTAYMELSSLRSEDTAVYYCARGDDGSYVRWYFDHWGQGTLVTVSS
notes: as for B2
B6: CD4001182 (Fc fusion)
scFv: DIQMTQSPSSVSASVGDRVTITCRSSQSLLFSVNQKNYLAWYQQKPGKAPKLLIYWASSRQSGVPDRFSGSGSGTDFTLTISSLQPEDFATYYCQHYYSYPWTFGQGTKVEIKGGGGSGGGGSGGGGSGGGGSQVQLVQSGAEVKKPGSSVKVSCKATGYTFSTSWIEWIRQAPGQGLEWIGSILPGSGSTNYNEKFKGKATFTADTSTSTAYMELSSLRSEDTAVYYCARGDDGSYVRWYFDHWGQGTLVTVSS
notes: as for B1
B7: CD4001193 (Fc fusion)
scFv: DIQMTQSPSSVSASVGDRVTITCRASQSLLFSVNQKNYLAWYQQKPGKAPKLLIYWASSLQSGVPSRFSGSGSGTDFTLTISSLQPEDFATYYCQHYYSYPWTFGQGTKVEIKGGGGSGGGGSGGGGSGGGGSQVQLVQSGAEVKKPGSSVKVSCKATGYTFSTSWIEWIRQAPGQGLEWIGSILPGSGSTNYNEKFKGKATFTADTSTSTAYMELSSLRSEDTAVYYCARGDDGSYVRWYFDHWGQGTLVTVSS
notes: as for B3
B8: CD4001199 (Fc fusion)
scFv: DIQMTQSPSSVSASVGDRVTITCRSSQSLLFSVNQKNYLAWYQQKPGKAPKLLIYWASTRESGVPDRFSGSGSGTDFTLTISSLQPEDFATYYCQHYYSYPWTFGQGTKVEIKGGGGSGGGGSGGGGSGGGGSQVQLVQSGAEVKKPGSSVKVSCKASGYTFSTSWIEWIRQAPGQGLEWMGSILPGSGSTNYNQKFQGRVTITADTSTSTAYMELSSLRSEDTAVYYCARGDDGSYVRWYFDHWGQGTLVTVSS
notes: as for B2
B9: CD4001203 (Fc fusion)
scFv: DIQMTQSPSSVSASVGDRVTITCRSSQSLLFSVNQKNYLAWYQQKPGKAPKLLIYWASTRESGVPDRFSGSGSGTDFTLTISSLQPEDFATYYCQHYYSYPWTFGQGTKVEIKGGGGSGGGGSGGGGSGGGGSQVQLVQSGAEVKKPGSSVKVSCKASGYTFSTSWISWVRQAPGQGLEWMGGILPGSGSTNYAEKFKGKVTITADTSTSTAYMELSSLRSEDTAVYYCARGDDGSYVRWYFDHWGQGTLVTVSS
notes: as for B2
B10: CD4001183 (Fc fusion)
scFv: DIQMTQSPSSVSASVGDRVTITCRSSQSLLFSVNQKNYLAWYQQKPGKAPKLLIYWASTLESGVPSRFSGSGSGTDFTLTISSLQPEDFATYYCQHYYSYPWTFGQGTKVEIKGGGGSGGGGSGGGGSGGGGSQVQLVQSGAEVKKPGSSVKVSCKATGYTFSTSWIEWIRQAPGQGLEWIGSILPGSGSTNYNEKFKGKATFTADTSTSTAYMELSSLRSEDTAVYYCARGDDGSYVRWYFDHWGQGTLVTVSS
notes: as for B1
B11: CD4001185 (Fc fusion)
scFv: DIQMTQSPSSVSASVGDRVTITCRSSQSLLFSVNQKNYLAWYQQKPGKAPKLLIYWASTRESGVPDRFSGSGSGTDFTLTISSLQPEDFATYYCQHYYSYPWTFGQGTKVEIKGGGGSGGGGSGGGGSGGGGSQVQLVQSGAEVKKPGSSVKVSCKASGYTFSTSWISWVRQAPGQGLEWIGGILPGSGSTNYNEKFKGKATFTADTSTSTAYMELSSLRSEDTAVYYCARGDDGSYVRWYFDHWGQGTLVTVSS
notes: as for B1
B12: CD4001190 (Fc fusion)
scFv: DIQMTQSPSSVSASVGDRVTITCRASQSLLFSVNQKNYLAWYQQKPGKAPKLLIYWASSRQSGVPDRFSGSGSGTDFTLTISSLQPEDFATYYCQHYYSYPWTFGQGTKVEIKGGGGSGGGGSGGGGSGGGGSQVQLVQSGAEVKKPGSSVKVSCKATGYTFSTSWIEWIRQAPGQGLEWIGSILPGSGSTNYNEKFKGKATFTADTSTSTAYMELSSLRSEDTAVYYCARGDDGSYVRWYFDHWGQGTLVTVSS
notes: as for B3
B13: CD4001192 (Fc fusion)
scFv: DIQMTQSPSSVSASVGDRVTITCRASQSLLFSVNQKNYLAWYQQKPGKAPKLLIYWASTLESGVPSRFSGSGSGTDFTLTISSLQPEDFATYYCQHYYSYPWTFGQGTKVEIKGGGGSGGGGSGGGGSGGGGSQVQLVQSGAEVKKPGSSVKVSCKATGYTFSTSWIEWIRQAPGQGLEWIGSILPGSGSTNYNEKFKGKATFTADTSTSTAYMELSSLRSEDTAVYYCARGDDGSYVRWYFDHWGQGTLVTVSS
notes: as for B3
B14: CD4001186 (Fc fusion)
scFv: DIQMTQSPSSVSASVGDRVTITCRSSQSLLFSVNQKNYLAWYQQKPGKAPKLLIYWASTRESGVPDRFSGSGSGTDFTLTISSLQPEDFATYYCQHYYSYPWTFGQGTKVEIKGGGGSGGGGSGGGGSGGGGSQVQLVQSGAEVKKPGSSVKVSCKASGYTFSTSWIEWIRQAPGQGLEWMGSILPGSGSTNYNEKFKGKVTITADTSTSTAYMELSSLRSEDTAVYYCARGDDGSYVRWYFDHWGQGTLVTVSS
notes: as for B1
B15: CD4001191 (Fc fusion)
scFv: DIQMTQSPSSVSASVGDRVTITCRSSQSLLFSVNQKNYLAWYQQKPGKAPKLLIYWASSLQSGVPSRFSGSGSGTDFTLTISSLQPEDFATYYCQHYYSYPWTFGQGTKVEIKGGGGSGGGGSGGGGSGGGGSQVQLVQSGAEVKKPGSSVKVSCKATGYTFSTSWIEWIRQAPGQGLEWIGSILPGSGSTNYNEKFKGKATFTADTSTSTAYMELSSLRSEDTAVYYCARGDDGSYVRWYFDHWGQGTLVTVSS
notes: as for B3
B16: CD4001181 (Fc fusion)
scFv: DIQMTQSPSSVSASVGDRVTITCRASQSLLFSVNQKNYLAWYQQKPGKAPKLLIYWASTRESGVPDRFSGSGSGTDFTLTISSLQPEDFATYYCQHYYSYPWTFGQGTKVEIKGGGGSGGGGSGGGGSGGGGSQVQLVQSGAEVKKPGSSVKVSCKATGYTFSTSWIEWIRQAPGQGLEWIGSILPGSGSTNYNEKFKGKATFTADTSTSTAYMELSSLRSEDTAVYYCARGDDGSYVRWYFDHWGQGTLVTVSS
notes: as for B1
B17: CD4001196 (Fc fusion)
scFv: DIQMTQSPSSVSASVGDRVTITCRSSQSLLFSVNQKNYLAWYQQKPGKAPKLLIYWASTRESGVPDRFSGSGSGTDFTLTISSLQPEDFATYYCQHYYSYPWTFGQGTKVEIKGGGGSGGGGSGGGGSGGGGSQVQLVQSGAEVKKPGSSVKVSCKASGYTFSTSWISWVRQAPGQGLEWIGGILPGSGSTNYNQKFQGRATFTADTSTSTAYMELSSLRSEDTAVYYCARGDDGSYVRWYFDHWGQGTLVTVSS
notes: as for B3
B18: CD4001194 (Fc fusion)
scFv: DIQMTQSPSSVSASVGDRVTITCRSSQSLLFSVNQKNYLAWYQQKPGKAPKLLIYWASTRESGVPDRFSGSGSGTDFTLTISSLQPEDFATYYCQHYYSYPWTFGQGTKVEIKGGGGSGGGGSGGGGSGGGGSQVQLVQSGAEVKKPGSSVKVSCKASGYTFSTSWISWVRQAPGQGLEWMGGILPGSGSTNYNEKFKGKVTITADTSTSTAYMELSSLRSEDTAVYYCARGDDGSYVRWYFDHWGQGTLVTVSS
notes: as for B3
B19: CD4001195 (Fc fusion)
scFv: DIQMTQSPSSVSASVGDRVTITCRSSQSLLFSVNQKNYLAWYQQKPGKAPKLLIYWASTRESGVPDRFSGSGSGTDFTLTISSLQPEDFATYYCQHYYSYPWTFGQGTKVEIKGGGGSGGGGSGGGGSGGGGSQVQLVQSGAEVKKPGSSVKVSCKASGYTFSTSWISWVRQAPGQGLEWIGGILPGSGSTNYAEKFKGKATFTADTSTSTAYMELSSLRSEDTAVYYCARGDDGSYVRWYFDHWGQGTLVTVSS
notes: as for B3

The target in this experiment is T1, human CD40 full-length (human, UniProt P25942 21-277).
T1 construct: Also used for CD40 of Daudi cells, of CD40-expressing HEK293 cells and of the BPS CD40/NFkB HEK293 reporter cells where the row says so; also called CD4001012; CHOK1SV/CD40
T1 sequence (P25942 21-277): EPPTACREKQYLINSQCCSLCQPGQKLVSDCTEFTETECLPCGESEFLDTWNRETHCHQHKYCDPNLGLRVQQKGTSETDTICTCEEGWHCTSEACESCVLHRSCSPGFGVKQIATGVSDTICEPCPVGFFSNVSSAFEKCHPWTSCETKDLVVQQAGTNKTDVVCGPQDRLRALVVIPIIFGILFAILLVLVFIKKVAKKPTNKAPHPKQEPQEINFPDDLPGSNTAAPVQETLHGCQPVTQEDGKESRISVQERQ
Description: flow cytometry, CHOK1SV/human CD40 cells.
In the case of B1, the binding result is listed as “binds”.

Consider B2, for which the binding result is on record as “binds”.

With B3, the binding result is “binds”.

For the molecule B4, the binding result is on record as “binds”.

In the case of B5, the binding result is on record as “binds”.

With B6, the binding result was “binds”.

B7: the binding result is reported as “no binding (tested: 300 nM)”.

In the case of B8, the binding result is “binds”.

With B9, the binding result was “binds”.

As for B10, the binding result is reported as “binds”.

On to B11, for which the binding result was “binds”.

Regarding B12, the binding result was “binds”.

As to B13, the binding result is “binds”.

Regarding B14, the binding result is recorded as “binds”.

On to B15, for which the binding result is reported as “binds”.

B16: the binding result is given as “binds”.

In the case of B17, the binding result is on record as “binds”.

As to B18, the binding result is “binds”.

For B19, the binding result was “binds”.
